In CN109734803A (ZONHON BIOPHARMA INST INC, dated 2019):

Assays:
重组人MYO(大肠杆菌重组表达，本公司制备) [1] = target: T1, 重组人MYO(大肠杆菌重组表达，本公司制备) (human, UniProt P02144 2-154); assay: indirect ELISA, recombinant human MYO coated at 1 μg/mL, hybridoma supernatant, HRP goat anti-mouse IgG
T1 construct: The background describes myoglobin as one chain of 153 residues with a haem group; also called 重组MYO; 人肌红蛋白
T1 sequence (looked up): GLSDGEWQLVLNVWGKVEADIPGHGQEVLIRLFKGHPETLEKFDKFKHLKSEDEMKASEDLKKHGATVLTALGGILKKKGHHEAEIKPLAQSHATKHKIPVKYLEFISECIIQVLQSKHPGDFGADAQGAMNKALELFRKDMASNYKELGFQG

重组人MYO(大肠杆菌重组表达，本公司制备) [2] = target: T1, 重组人MYO(大肠杆菌重组表达，本公司制备); assay: Western blot, recombinant MYO on nitrocellulose, HRP-labelled M26 at 1:1000
重组人MYO(大肠杆菌重组表达，本公司制备) [3] = target: T1, 重组人MYO(大肠杆菌重组表达，本公司制备); assay: Western blot, recombinant MYO on nitrocellulose, HRP-labelled M08 at 1:1000

Binder	binding result (重组人MYO(大肠杆菌重组表达，本公司制备) [1])	further results
杂交瘤细胞株M26的抗人MYO抗体 (antibody, V domains shown, Mouse hybridoma culture supernatant, detected with HRP goat anti-mouse IgG; also called 抗人肌红蛋白抗体(M26)) VH: QVQLQQSGDDLVKPGASVKLSCKASGYTFTSYWINWIKQRPGQGLEWIGRIAPEGDSTYYNEMFKGKATLTVDTSSSTAYIQLSSLSSEDSAVYFCAREVRNAMDYWGQGTSVTVSS VL: DIQMNQSPSSLSASLGDTITITCHASQNIHVWLSWYLQKPGNITKLLIYEASNLHTGVPSRFSGSGSGTGFTLTISSLQPEDIATYYCQQGQRYPLTFGGGTKLEIK	binds	–
单链抗体M26 (scFv, VH and VL of M26 joined by a (GGGGS)3 linker, expressed in E. coli and purified on HisTrap; HRP-labelled in the Western blot; coated on the T line of the nitrocellulose membrane in the test card; also called M26-scFv; M26-HRP; not shown: Histidine tag introduced downstream of the gene) scFv: QVQLQQSGDDLVKPGASVKLSCKASGYTFTSYWINWIKQRPGQGLEWIGRIAPEGDSTYYNEMFKGKATLTVDTSSSTAYIQLSSLSSEDSAVYFCAREVRNAMDYWGQGTSVTVSSGGGGSGGGGSGGGGSDIQMNQSPSSLSASLGDTITITCHASQNIHVWLSWYLQKPGNITKLLIYEASNLHTGVPSRFSGSGSGTGFTLTISSLQPEDIATYYCQQGQRYPLTFGGGTKLEIK	–	binding result (重组人MYO(大肠杆菌重组表达，本公司制备) [2]): binds
单链抗体M08 (scFv, VH and VL of M08 joined by a (GGGGS)3 linker, expressed in E. coli and purified on HisTrap; HRP-labelled in the Western blot; coupled to time-resolved fluorescent microspheres in the test card; also called M08-scFv; M08-HRP; not shown: Histidine tag introduced downstream of the gene) scFv: QVQLQQSGAELAKPGASVKMSCKASGYTFTSYWMHWVKQRPGQGLEWIGYIKPNTDYTEYNQKFKDKATLTADKSSSTAYMQLSSLTSEDSAVYYCTRIRGYALDYWGQGTSVTVSSGGGGSGGGGSGGGGSDIVMTQSPSSLTVTAGEKVTMICKSSQSLLNSGNQKNYLTWYQQKPGQPPKLLIYWASTRESGVPDRFTGSGSGTDFTLTISSVQAEDLAVYYCQNDYNFPLTFGAGTKLELK	–	binding result (重组人MYO(大肠杆菌重组表达，本公司制备) [3]): binds
杂交瘤细胞株M08的抗人MYO抗体 (antibody, V domains shown, Mouse hybridoma culture supernatant, detected with HRP goat anti-mouse IgG; also called 抗人肌红蛋白抗体(M08)) VH: QVQLQQSGAELAKPGASVKMSCKASGYTFTSYWMHWVKQRPGQGLEWIGYIKPNTDYTEYNQKFKDKATLTADKSSSTAYMQLSSLTSEDSAVYYCTRIRGYALDYWGQGTSVTVSS VL: DIVMTQSPSSLTVTAGEKVTMICKSSQSLLNSGNQKNYLTWYQQKPGQPPKLLIYWASTRESGVPDRFTGSGSGTDFTLTISSVQAEDLAVYYCQNDYNFPLTFGAGTKLELK	binds	–
